Test results as given in US20220185900A1 (Regeneron, published 2022).

T1: Macaca fascicularis (mf) RET.mmh (Macaca fascicularis)
T1 construct: also called monkey RET
T1 chain: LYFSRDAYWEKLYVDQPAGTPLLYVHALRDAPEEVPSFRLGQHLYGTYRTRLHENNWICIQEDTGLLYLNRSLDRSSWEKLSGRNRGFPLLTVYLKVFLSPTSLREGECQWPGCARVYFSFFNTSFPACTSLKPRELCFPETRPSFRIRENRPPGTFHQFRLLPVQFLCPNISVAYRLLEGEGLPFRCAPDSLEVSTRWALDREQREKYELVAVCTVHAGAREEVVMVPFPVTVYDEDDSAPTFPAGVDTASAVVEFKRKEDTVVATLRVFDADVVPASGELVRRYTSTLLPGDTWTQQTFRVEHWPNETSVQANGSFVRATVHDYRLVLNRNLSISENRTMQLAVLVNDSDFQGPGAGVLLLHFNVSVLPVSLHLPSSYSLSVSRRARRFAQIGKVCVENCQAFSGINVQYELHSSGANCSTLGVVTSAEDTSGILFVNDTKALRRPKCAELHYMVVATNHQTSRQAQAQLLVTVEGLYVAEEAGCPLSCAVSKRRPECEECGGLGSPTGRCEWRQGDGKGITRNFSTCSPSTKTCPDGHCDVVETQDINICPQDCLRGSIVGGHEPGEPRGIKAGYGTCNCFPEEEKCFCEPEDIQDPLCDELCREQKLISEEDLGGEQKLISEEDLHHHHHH


Tests used:
[1] = molecular target: T2, hRET.mmh (human, UniProt P07949 29-635, biotinylated in the ELISA of Example 4 (biot-hRET.mmh); not in the SPR of Example 3); experiment: competition sandwich ELISA: 1 nM biot-hRET.mmh + antibody, plate-coated GDNF/GFRα1 co-complex
T2 construct: also called biot-hRET.mmh; soluble monomeric human RET
Procedure: The ability of anti-RET antibodies to block the binding of human RET to pre-complexed plate bound GDNF:GFRα1 was assessed using a competition sandwich ELISA.
Antibody-RET mixtures were incubated for 1 hour at RT and then transferred to microtiter plates previously coated with the hGDNF/hGFRα1 co-complex. Binding was allowed to proceed for 1 hr at RT followed by extensive washing. […] Plates were read at 450 nm and data analysis used a sigmoidal dose-response model within Prism™ software.
The absorbance values of the wells containing the highest concentration for each antibody were used to determine the blocking percent at maximum concentration antibody tested.

[2] = molecular target: T2, hRET.mmh; experiment: SPR Biacore T200, mAb capture, 25 C
Procedure: (§1) Binding affinities and kinetic constants of human anti-RET antibodies were determined by surface plasmon resonance (Biacore T200) at […] (Tables 2-3). […] Binding equilibrium dissociation constants (KD) and dissociative half-lives (t_{1/2}) were calculated from the kinetic rate constants as: KD [M]=kd/kₐ; and t_{1/2}(min)=(ln2/(60*kd). Calculations were performed using BiacoreT200 evaluation software v1.0.

[3] = molecular target: T1, Macaca fascicularis (mf) RET.mmh; experiment: SPR Biacore T200, mAb capture, 25 C
Procedure: as §1

[4] = molecular target: T3, hRET.mFc (human); experiment: SPR Biacore T200, mAb capture, 25 C
T3 construct: also called dimeric human RET
Procedure: as §1

[5] = molecular target: T2, hRET.mmh; experiment: SPR Biacore T200, mAb capture, 37 C
Procedure: as §1

[6] = molecular target: T1, Macaca fascicularis (mf) RET.mmh; experiment: SPR Biacore T200, mAb capture, 37 C
Procedure: as §1

[7] = molecular target: T3, hRET.mFc; experiment: SPR Biacore T200, mAb capture, 37 C
Procedure: as §1

% Max Blocking [1] [%] | IC50 [1] [nM] | Kd [2] [nM] | koff [2] [s⁻¹] | kon [2] [M⁻¹ s⁻¹] | t½ [2] [min] | Kd [3] [nM] | koff [3] [s⁻¹] | Kd [4] [nM] | koff [4] [s⁻¹] | kon [4] [M⁻¹ s⁻¹] | t½ [4] [min] | Kd [5] [nM] | koff [5] [s⁻¹] | kon [5] [M⁻¹ s⁻¹] | t½ [5] [min] | Kd [7] [nM] | koff [7] [s⁻¹] | kon [7] [M⁻¹ s⁻¹] | t½ [7] [min] | Binder | also measured
96 | 0.33 |  |  |  |  |  |  |  |  |  |  |  |  |  |  |  |  |  |  | H2M7086N (antibody, mouse IgG2, V domains shown, human variable domains with mouse IgG2 Fc (H2M prefix)) VH: QVQLVESGGGVVQPGRSLRLSCVVSGFTFSNYGMHWVRQGPGRGLEWLALIWYDGSDKYYAESVRGRFTISRDNSKNTVYLQMNSLRAEDTAMYYCTRDRIFDYWGQGTLVTVSS VL: AIQMTQSPSSLSASVGDRVTITCRASQDIRNDLGWYQHNPGKAPNLLIYAASTLQIGVPSRFRGSGSGTDFTLTISSLQPEDFATYYCLQDFDYPLSFGGGTKVEIR | 
97 | 0.39 |  |  |  |  |  |  |  |  |  |  |  |  |  |  |  |  |  |  | H4H7086N (antibody, human IgG4, V domains shown, human IgG4 Fc form of 7086N; also called H4H7086P) VH: QVQLVESGGGVVQPGRSLRLSCVVSGFTFSNYGMHWVRQGPGRGLEWLALIWYDGSDKYYAESVRGRFTISRDNSKNTVYLQMNSLRAEDTAMYYCTRDRIFDYWGQGTLVTVSS VL: AIQMTQSPSSLSASVGDRVTITCRASQDIRNDLGWYQHNPGKAPNLLIYAASTLQIGVPSRFRGSGSGTDFTLTISSLQPEDFATYYCLQDFDYPLSFGGGTKVEIR | 
96 | < 0.25 | 2.34 | 0.000187 | 80100 | 62 | 3.4 | 0.000225 | 1.33 | 0.000125 | 94000 | 92 | 6.23 | 0.000897 | 144000 | 13 | 5.5 | 0.00055 | 99000 | 21 | H4H8085P (antibody, human IgG4, V domains shown, human IgG4 Fc (H4H prefix)) VH: QVQLVESGGGVVQPGRSLRLSCTASGFTFDNYGMHWVRQAPGKGLEWVAVISYDGSNTFYADSVKGRFTISRDNSKNALYLQMNSLRAEDTAVYYCAKDLEFDILIGYPFDSWGRGTLVTVSS VL: DIQLTQSPSFLSASVGDRVTITCWASQDISRYLAWYQQKPGKAPNLLIYAASTLQSGVPSRFSGSGSGTEFTLTINSLQPEDFATYYCQQLFSYPRTFGQGTKVEIK | kon [3]: 66000 M⁻¹ s⁻¹; t½ [3]: 51 min; Kd [6]: 8.3 nM; koff [6]: 0.00126 s⁻¹; kon [6]: 152000 M⁻¹ s⁻¹; t½ [6]: 9 min
95 | < 0.25 | 2.52 | 0.000484 | 192000 | 24 | 3.44 | 0.000711 | 1.14 | 0.000224 | 197000 | 52 | 9.04 | 0.00255 | 282000 | 5 | 3.02 | 0.0008 | 264000 | 14 | H4H8083P (antibody, human IgG4, V domains shown, human IgG4 Fc (H4H prefix)) VH: QVQLVESGGGVVQPGRSLRLSCAASGFTFNNYVMHWVRQAPGKGLEWVALIWYDGSNKYYADSVKGRFTISRDNSKNALNLQMNSLRAEDTAVYFCARVSIAARNYYYGGLDVWGQGTTVTVSS VL: EIVLTQSPGTLSLSPGERATLSCRASQSVSSTYLAWYQQKPGQAPRLLIYGASSRATGIPDRFSGSGSGTDFTLTISRLEPEDFAVYYCQHYGGSPLTFGGGTKVEIK | kon [3]: 207000 M⁻¹ s⁻¹; t½ [3]: 16 min; Kd [6]: 14.2 nM; koff [6]: 0.004 s⁻¹; kon [6]: 283000 M⁻¹ s⁻¹; t½ [6]: 3 min
95 | < 0.25 | 2.12 | 0.000235 | 111000 | 49 | 385 | 0.0415 | 0.94 | 0.000158 | 168000 | 73 | 7.31 | 0.00116 | 159000 | 10 | 2.24 | 0.000458 | 204000 | 25 | H4H8067P (antibody, human IgG4, V domains shown, human IgG4 Fc (H4H prefix)) VH: QVQLVESGGGVVQPGRSLRLSCVASGFTFSNYGMHWVRQAPGKGLEWVALIWYDGSNKYFADSVKGRFTISRDNSKRMMFLEMNSLRAEDTAIYYCTRDRLFDFWGQGTLVTVSS VL: AIQMTQSPSSLSASVGDRVSITCRASQDIRHDLGWFHQKPGKAPKLLIYAASTLQSGVPSRFGGSGSGTDFTLTITSLQPEDFGTYYCLQDYNYPATFGQGTRLEIK | kon [3]: 108000 M⁻¹ s⁻¹; t½ [3]: 0.3 min; Kd [6]: 196 nM; koff [6]: 0.0603 s⁻¹; kon [6]: 307000 M⁻¹ s⁻¹; t½ [6]: 0.2 min
82 | < 0.25 | 2.38 | 0.000502 | 211000 | 23 |  |  | 1.32 | 0.000242 | 183000 | 48 | 9.35 | 0.00267 | 285000 | 4 | 3.98 | 0.00107 | 269000 | 11 | H4H8080P (antibody, human IgG4, V domains shown, human IgG4 Fc (H4H prefix)) VH: EVQLVESGGGLVQSGGSLRLSCVASGFTFSTYAMTWVRQAPGRGLEWVSAISGSGASTYYADSLKGRFTVSRDNSKNTLYLQMNSLRAEDTAVYYCSKDHRNYDSDYDMDVWGQGTTVTVSS VL: DIQMTQSPSSLSASVGDRVTITCRASQGIRNYLGWYQQKPGKAPKRLIYTASSLQSGVPSRFRGSGSGTEFTLTISSLQPEDFATYYCLQHNSYPYTFGQGTKLEIK | binding result [3]: no binding
96 | < 0.25 | 0.518 | 0.000375 | 723000 | 31 | 0.565 | 0.000393 | 0.284 | 0.000204 | 720000 | 57 | 1.56 | 0.00165 | 1.06e+06 | 7 | 0.809 | 0.00085 | 1.05e+06 | 14 | H4H8084P (antibody, human IgG4, V domains shown, human IgG4 Fc (H4H prefix)) VH: QVQLVESGGGVVQPGRSLRLSCEASGFTFRNYGMHWVRQAPGKGLDWVSTIYYDGSDEYYSDSVKGRFTISRDNSKNTLYLQMNSLRAEDTAVYYCARDPPSFRYFDYWGQGTLVTVSS VL: DIQMTQSPSTLSASVGDRVTITCRASQSIRSWLTWYQQKPGKAPKVLIYKASTLERGVPSRFSGSGSGTEFTLTISSLQPEDFATYYCHQYSSYSYTFGQGTKLEIK | kon [3]: 695000 M⁻¹ s⁻¹; t½ [3]: 29 min; Kd [6]: 1.76 nM; koff [6]: 0.00178 s⁻¹; kon [6]: 1.01e+06 M⁻¹ s⁻¹; t½ [6]: 6 min
57 | 0.41 | 2.02 | 0.000257 | 127000 | 45 | 13.7 | 0.000882 | 0.58 | 0.00012 | 207000 | 96 | 5.43 | 0.00106 | 195000 | 11 | 1.28 | 0.000335 | 262000 | 34 | H4H8066P (antibody, human IgG4, V domains shown, human IgG4 Fc (H4H prefix)) VH: EVQLVESGGGLVQPGGSLRLSCEASGFTFSRYAMTWVRQAPGKGLEWVSGISGSGGSTFYVDSLQGRFTLSRDNSKHTLFLQMNSLRAEDTAIYYCAKENTYGHFDYWGQGTLVTVSS VL: DIQLTQSPSFLSASVGDRVTITCWASQDISTYLAWYQQKPGKAPQVLIYAASSLQYGVPSRFSGSGSGTEFTLTITSLQPEDFATYYCQQLIGYPYIFGQGTKLEIK | kon [3]: 64300 M⁻¹ s⁻¹; t½ [3]: 13 min; Kd [6]: 39.4 nM; koff [6]: 0.00323 s⁻¹; kon [6]: 81900 M⁻¹ s⁻¹; t½ [6]: 4 min
